According to article PMC7653264 (2020):

Legend:
GST-PCNA [1] = biological target: T1, GST-PCNA (UniProt P12004 1-261); experiment: ITC
GST-PCNA [2] = biological target: T1, GST-PCNA; experiment: ITC; remark: listed apart in the source

T1 sequence (P12004 whole entry): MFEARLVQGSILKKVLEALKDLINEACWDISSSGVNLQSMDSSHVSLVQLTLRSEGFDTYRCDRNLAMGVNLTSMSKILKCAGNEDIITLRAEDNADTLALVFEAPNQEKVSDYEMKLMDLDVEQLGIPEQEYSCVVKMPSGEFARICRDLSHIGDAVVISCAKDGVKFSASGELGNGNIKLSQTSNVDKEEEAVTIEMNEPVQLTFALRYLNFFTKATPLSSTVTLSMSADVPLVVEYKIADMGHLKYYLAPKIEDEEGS

Kd (GST-PCNA [1]): 1.33 µM
Ka (GST-PCNA [2]): 1.16e+06 M⁻¹
B1: H3K79me0 peptide (amino acids H3 75-83) (peptide)
chain: AQDFKTDLR
